# Reference: the supplement of paper PMC9170038
# Tested on: K4 kissing-loop RNA reporter
# Experiment: apparent KD of K4 kissing-loop reporter; higher = weaker reporter binding
# Settings: Eterna round: R107; input ligand: none
# Experimental: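 RNA-MaP round R107: designed RNA switches with theophylline, tryptophan, arginine or FMN aptamers are transcribed on-chip within common flanks. They are titrated with a labelled K4 kissing-loop RNA reporter in RNA-MaP buffer (100 mM Tris pH 7.5, 80 mM KCl, 4 mM MgCl2), without ligand or with the indicated ligand. Median apparent KD per design.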
# 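Further: bound reporter read as fluorescence of individual clusters on recovered sequencing chips by microscopy, with normalized cluster intensities fitted with a binding model.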
row,Sequence,apparent KD of K4 kissing-loop reporter
1,AGACUACUGAUAGGAUAUAACAUCCUAGUCGUAUACCGAAAGGUAUACGAAACCCUUCUAGUGAUGUUAGAAGGGUCGGUAGUCA [Omei KL FMN B Exc B v9],80.9 nM
2,UCCAGGAAUCAUGUCGUAGUGAUGUUAUGACGAGGACCGGUACGGCCGCCACUCGUCGUGGCCGGUUCUGAGGGCUAAUCUCUCA [theeternabot_exclusion_KL_Trp_A_34],273 nM
3,UUCCUCAUGGUAGUGAUGUUGCCGCCCGAUACCAGUCGACGUAUUGACCCUUGGCAGCGGAUCAAGUCCGAUUAAUUUUUUGGUC [theeternabot_sameState_KL_Theo_A_5],217 nM
4,AAAACUAUCAGAAGGAGCGUGGAAUAUUCAUCUGUAUCUAAUACGAGUGAUGUUCGUAAUUCACAGGUAGGUCGCUGAUCAAUAA [whbob_Ex_Arginine_B_2th155],241 nM
5,AUCGUUGUCUGAGGAUAUCGGUUAUCUGUAGUGAUGUUACAGUAUAUUCAUAUUAUACUUUCUAUUCGAGAAGGCAGACUACGUA [JR_Nu_ExcFMNB_Sub020],82.5 nM
6,CCAUCGCUAUUCGAUACCAGCCAAGAGGUCUUUGGCCUCUUAAUGGAGUGAUGUUCCAUUGGCCCUUGGCAGCGAAUAGUGAUGG [Theophylline B K4 18],723 nM
7,AGGCACGAGCAAGGAUAUUGAGUAGAGUGAUGUUCUGCCUGGGUUGGCUCGUAAGAGCCUUCUCAGCGAGAAGGUGCUCGUGCCU [#2 Same State - FMN A Attempt #23 (HarryS)],679 nM
8,GGAUCUGCCAGUGAUGUUGGUUAAUAUAUCAAGGAUAUGACGAAAGUCAGAAGGUGAAAGACUGGACAAAGUCCAGUCGGAUCCA [KL-SSFMN-A20],352 nM
9,CCUAUCUCAUACGAUACCAGUGAAAUAAUAUUUAUAAGCAGUGAUGUUGCAUUCCAAGAACACCCUUGGCAGCGUAUGGGAUAGG [Ex Theophylline B K4 19],178 nM
10,CGAGUGAUGUUCGUUUUUUAAUUUUUUUGACAGGAUAUGCGGAAACGCAGAAGGGUCACCUUUGAGUUAAAAGAAUUUAUUUUUU [Ex FMN A 17],295 nM
11,AUAAACUUGCAGUGAUGUUGCAAGUAAGACUAGGAUAUCAGGAAACUGAGAAGGAGUCAUCUCCUUCACUUGCAACUAGGAGGAG [[K1]-[K2]-[F1]-[F2]-[F]'-[K]'-[F]''_Design6],143 nM
12,GAUGGUGGCAGUGAAGUGAUGUUUCAUGAUACCAGUUUUAUAAGUAACCCUUGGCAGCAUCGUACGCAGCGUAGUGGACAUCACG [theeternabot_exclusion_KL_Theo_A_25],140 nM
13,UGUUAUGUAUCAGGAUAUUAGUGAUGUUUGUUUAUGUUAGUGAUGUUGAUAUUUGUUUUAUGUAUUUAAGAAGGGAUUGAGAUGU [dcdmullin],45.1 nM
14,GCAGGACGAUGAGGAGGAUGAAUUACUGAAGGAGCGCAUAUGGUUGCAGGUAGGUCGCGGUGAACAAGUAUAGUGAUGUUAUAUC [SSArgA.R],138 nM
15,AAACGUUGGUGCGAUACCAGCUUGCGCGGAAAACGCGCUACUGGAGUGAUGUUCCUAAAUAGCCCUUGGCAGCGCACCGACGAAA [MAT - Same State Theophlline B - Mod of Eli - D9],155 nM
16,UUACAGCCCAGUGAUGUUGGGUAGCGGCGGCGAGGACCGGUACGGCCGCCACUCGGCGCACAGGCGGAGUGAUGUUUUGCUUAAA [Same State Tryptophan A GF 11],894 nM
17,UAUUUAGUGACGGCCGCCACUAUUGUGAUUUAUUUGUUUGAGUGAUGUUUUGAUGUUUGAUUUUGUAGGACCGGGUUAUGUGUUA [awscmullin],938 nM
18,UACUAUAGUGAUGUUAUAGAUAAAACAGAUACCAGUGUAACAUAACACCCUUGGCAGCUGAUAAGGGAAAGUAUAAAUGUGUAUU [AstrosSSTHe-A#2newdesignED],199 nM
19,UUCUACGAGUGAUGUUCGUAGUGUAAUAGCUAGGAUAUCGUUUUUUCGAGAAGGAGCUUCGAAGUGAUACGAAAGUAUCGCUUCG [FMN A 12],349 nM
20,AAUAAAAUCACGGCCGCCACUGAUACUAAUAUUAGCAGUGAUGUUGCUAUGUAUAAUUUAUUAAACAGGACCGGGUGAAUAUUUA [JR_ExcTryptoB_Sub015],126 nM
21,GCCGUACGCAUGGAUACCAGCACUCGUUGAGUGAUGUUCACGAGGUGGUAUUCGACGGGCUGCCCUUGGCAGCCAUGCGUACGGC,102 nM
22,GUAAUCUUGCUCGAGUGAUGUUCGAGCGAAGGAGCGCGAGAAAUCGCAGGUAGGUCGCGCUCGAAAUAUGAGCGAACAAUUAUUA [Arg A Ex t2b],220 nM

# Same assay, conditions: Eterna round: R107; input ligand: theophylline 20 uM
row,Sequence,apparent KD of K4 kissing-loop reporter
1,CAGACAUGCGGUAGGUUCAAGCGCUGGGAAGGAGCGCAGAUGACUGCAGGUAGGUCGCCCAGUGAUGUUGGGCUUUCCACCUAUG [Onbeenbi],150 nM
2,CAUACGCAUGGAGGAUAUGAGAUUACUCAUAUCAUUUAAUAUUCUCAGUGAUGUUGAGAUUUAGACUCAGAAGGCCAUGUGUAUG [Ex FMN B 13],357 nM
3,CGUUUAUAGCAGGAUACCAGUACCCAUUAUGUACGUUUAUAGUAGAGUGAUGUUCUAAAGUACCCUUGGCAGCUUCCCGUGACCC [ExTheophylB.Z],179 nM
4,GCCGUACGCAUGGAUACCAGCAGAACUGCCCUCCCAGUGAUGUUGGGAGGAUCUUUCCUAUGCCCUUGGCAGCCAUGCGUACGGC,117 nM
5,GCGAACAUUCGCAGUGAUGUUGCGACGGAAGGAGCGCGUGAAAACGCAGGUAGGUCGCCGACAACAUUAAUUUUAAUGUGUUCGC [Arginine A K4 28],356 nM
6,AGUGGACGUGUUCGGAGUGAUGUUCCGGAUACCAGACACGAAAGUGUCCCUUGGCAGCCGGAGUGAUGUUCCGGCGUUCACUAAA [Omei KL Theo A Exc B v2],533 nM
7,UAAUAAAUUCUGGCAAUGUCACUCUUCGAAGGAGCGGACGAAAGUCCAGGUAGGUCGCGAAGAGUGAUGUUCUUCGCGGCGCCAG [Omei KL Arginine A Exc A v1],304 nM
8,UCGAUAGCCAGCGAUACCAGCCCAGUGAUGUUGGGCACAUGGUUGCGGGAAAUCCUAUUGGGCCCUUGGCAGCGCUUGCAUGGGU [Anbixeza],107 nM
9,GGUAGCAUGGCGGCCGCCACUUGCACUCGUCUUGCAUAUUGGCCUAUGAUAGUAGUGAUGUUACUAAGGACCGGGCCAUGCUACC,178 nM
10,UUUUUAUGCAGUGAUGUUGCUAAUAUAACAGAGGAUAUGCAUUAAAGCAGAAGGCUGAAAUACUAUACUUUAAUAAAUUAAAUUU [JR_SSFMNA_Sub013],144 nM
11,UGUCAUUGGUCGGCCGCCACUAUAAUAAAAGAGUGAUGUUCUAAAAGACGGACAAAAGUCUGUCGUAGGACCGGGACCGAUGACU [TrypBS 26 #SwitchBubble #StaticStem],916 nM
12,CGCAGUGAUGUUGCUUUUAUUCUUGGUUAACGAGGACCGGUACGGCCGCCACUCGAUUUCUAUCUAUUCCAGUGUUUUUUUGAGU [JR_ExcTryptoA_Sub004],464 nM
13,AGUUCAGAGUGACUCGAUAAGAGUCACAAACGAGGACCGGUACGGCCGCCACUCGAAAUAACGAGAGUGAUGUUCUCGCUGGGCA [FiskerMod 2 - Jieux - Same State Tryptophan A],824 nM
14,GUCUGCGUCUCGGCCGCCACUCACUAGUGAUGUUAGUAAGGAGCGACUAGCGCAGUCCUGAAGAUGAGGACCGGGAGACGCAGGA [Exclusion Tryptophan B GF5],91 nM
15,UCCUGCACGGUCGAUACCAGCCUAUGCAGUGAUGUUGUAAGGUUGUCACUUUAGUACGAAGGCCCUUGGCAGCGAUGAUGUAACA [theeternabot_exclusion_KL_Theo_B_41],504 nM
16,UACACGACUCGUGUAAACCGAGGUAACAGGCAGGAUAUGUAACGGAACAGAAGGGCCAUGUAGCGUGUCCAGUGAUGUUGGAUGC [Betilare],180 nM

row,Sequence,apparent KD of K4 kissing-loop reporter
1,ACGAUCAUGUCGGCCGCCACUGAGAGUAGUGAUGUUACUCUUUUCCUUUAGUUAUUAUAUUUUAUCAGGACCGGGACAUGUUCGU [JR_ExcTryptoB_Sub022],69.6 nM
2,UGAUACCAGACGGCCGCCACUCUUGCAGUCAAAGACUGCUAAAAGGAAAUCGUCCAGUGAUGUUGGAGGACCGGGUCUGGUAUCU [TrypBX 15 #SwitchBubble #Palindromic #StaticStem],774 nM
3,AUACGUUUCAGAGGAUAUCGGAGGAGAGUGAUGUUCUCCCAUAGCCCAGUGAUGUUGGAAGCUAUCCGAGAAGGCUGUGGGCGUA [Same State FMN B GF 15],179 nM
4,AAAGCAUUGAGAAGGAGCGUGUCGUGGAGUGAUGUUCCAUUGUAGACCUAAGGUCUACAAGCACAGGUAGGUCGCUCAUUGCUAA [JR_Nu_SSArginiB_Sub023],138 nM
5,AAUACGCCGAAAGGAUAUAUAGAACAUCAAGGGCGCUGACUUUGCUAAAUCACAAGUGAUGUUUGUAUAGAAGGUUCGCAGUCAA [theeternabot_exclusion_KL_FMN_B_30],452 nM
6,AGACUACUGAUAGGAUAUAACAUCCUAGUCGUAUACCGAAAGGUAUACGAAACCCUUCUAGUGAUGUUAGAAGGGUCGGUAGUCA [Omei KL FMN B Exc B v9],59.6 nM
7,UCCAGGAAUCAUGUCGUAGUGAUGUUAUGACGAGGACCGGUACGGCCGCCACUCGUCGUGGCCGGUUCUGAGGGCUAAUCUCUCA [theeternabot_exclusion_KL_Trp_A_34],227 nM
8,UUCCUCAUGGUAGUGAUGUUGCCGCCCGAUACCAGUCGACGUAUUGACCCUUGGCAGCGGAUCAAGUCCGAUUAAUUUUUUGGUC [theeternabot_sameState_KL_Theo_A_5],320 nM
9,AAAACUAUCAGAAGGAGCGUGGAAUAUUCAUCUGUAUCUAAUACGAGUGAUGUUCGUAAUUCACAGGUAGGUCGCUGAUCAAUAA [whbob_Ex_Arginine_B_2th155],250 nM
10,AUCGUUGUCUGAGGAUAUCGGUUAUCUGUAGUGAUGUUACAGUAUAUUCAUAUUAUACUUUCUAUUCGAGAAGGCAGACUACGUA [JR_Nu_ExcFMNB_Sub020],74.8 nM
11,CCAUCGCUAUUCGAUACCAGCCAAGAGGUCUUUGGCCUCUUAAUGGAGUGAUGUUCCAUUGGCCCUUGGCAGCGAAUAGUGAUGG [Theophylline B K4 18],823 nM
12,AGGCACGAGCAAGGAUAUUGAGUAGAGUGAUGUUCUGCCUGGGUUGGCUCGUAAGAGCCUUCUCAGCGAGAAGGUGCUCGUGCCU [#2 Same State - FMN A Attempt #23 (HarryS)],552 nM
13,GGAUCUGCCAGUGAUGUUGGUUAAUAUAUCAAGGAUAUGACGAAAGUCAGAAGGUGAAAGACUGGACAAAGUCCAGUCGGAUCCA [KL-SSFMN-A20],460 nM
14,CCUAUCUCAUACGAUACCAGUGAAAUAAUAUUUAUAAGCAGUGAUGUUGCAUUCCAAGAACACCCUUGGCAGCGUAUGGGAUAGG [Ex Theophylline B K4 19],189 nM
15,CGAGUGAUGUUCGUUUUUUAAUUUUUUUGACAGGAUAUGCGGAAACGCAGAAGGGUCACCUUUGAGUUAAAAGAAUUUAUUUUUU [Ex FMN A 17],298 nM
